Measurements: patent publication EP4613859A1, “TLR SIGNALING INHIBITORY PEPTIDE AND COMPOSITION INCLUDING SAME FOR PREVENTION OR TREATMENT OF INFLAMMATORY DISEASES” (Korea Institute of Science and Technology, priority 2022, dated 2025)

Target: human MyD88 (human) (UniProt Q99836)
Assay: P3 phage display panning on plate-immobilised MyD88, after round 4, NGS

Sequence of UniProt Q99836 (Q99836 155-296 limits assumed): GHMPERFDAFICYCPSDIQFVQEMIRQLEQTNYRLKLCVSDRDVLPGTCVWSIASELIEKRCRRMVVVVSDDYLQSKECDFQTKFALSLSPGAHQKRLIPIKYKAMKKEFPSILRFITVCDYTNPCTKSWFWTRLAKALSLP

| Binder | NGS count | Population |
| --- | --- | --- |
| DHHLDLPRGKAIKPEILG | 26700 count | 7.78% |
| NELVHVWSSKANSLVG | 8820 count | 2.57% |
| YYLDPSHLRKQSGEFG | 2540 count | 0.74% |
| NGHESEIIKEIVDTIV | 4230 count | 1.23% |
| YAFTGHLHRYLVQRGV | 13400 count | 3.91% |
| LVAHEISKKMKIFATI | 17500 count | 5.08% |
| PEKDNGGENAFINNIV | 2500 count | 0.73% |
| PSEVRKQTGSLAKAFA | 2250 count | 0.66% |
| EWIREQLRPALKERLP | 16800 count | 4.9% |
| SENYATSPWALDELVL | 5490 count | 1.89% |
| SSFREGLWRLLELSKK | 79500 count | 23.1% |
| LKVESWRQALEKAGKL | 16800 count | 4.91% |
| TSHLHHALRLNKIETF | 2080 count | 0.6% |
| GFLYQAFAREGFKIFM | 2580 count | 0.75% |
| FLSYRALEKRFGPIGQ | 3290 count | 0.96% |
| KNLFNELVSKNIRTFM | 8540 count | 2.49% |
| SELRVVDDGSVSPLEM | 4870 count | 1.42% |
| RKGDLISDELLIAIEE | 2450 count | 0.71% |
| AVDKETDKIQTPLKNA | 4790 count | 1.39% |
| HLLKEFDKKLITAFKD | 2400 count | 0.7% |
| YTALTNSGFHTFRDND | 17600 count | 5.12% |

Target: human MyD88 (human) (UniProt Q99836)
Assay: P8 phage display panning on plate-immobilised MyD88, after round 4, NGS

| Binder | NGS count | Population |
| --- | --- | --- |
| HWIDWEYFVGIEDHIK | 3420 count | 1.32% |
| DWVWDYLLPNLEGPAG | 19400 count | 7.47% |
| YASYDDNDYYWVTHVLLRHL | 5890 count | 2.66% |
| DSLFWDRLLYSLHVTE | 7590 count | 2.92% |
| YAASPWWFDELVKIVG | 3430 count | 1.32% |
| IDDDHLTYLVRLLLSR | 3060 count | 1.18% |
| DPQDLQWFYERLVSLI | 5730 count | 2.21% |
| DPQDLDWFYERLVSLL | 13100 count | 5.06% |
| WALDELLKILYANETM | 10500 count | 4.05% |
| SAAYDDFWDRLIRMIE | 5340 count | 2.06% |
| LEANDSLFWDRLLYSL | 1460 count | 0.56% |
| DPQDLDWFYERLVSLF | 54800 count | 21.1% |
| SPQEQDGFWVRLIEAL | 1840 count | 0.71% |
| WDFASNMEQFWDRLYY | 7350 count | 2.83% |
| YLLLSVFQTIFARRTE | 7160 count | 2.76% |
| DYASSTWWLRELLQIA | 4110 count | 1.58% |
| VQWDDPWFWDKLAYAM | 4900 count | 1.89% |
| PQDLEWFYERLVSLIL | 10600 count | 4.07% |
| DPQDLEWFYERLFSQM | 4490 count | 1.73% |
| MFGGDTFHDFLDLISM | 1490 count | 0.57% |
| YLRADDSWFWEKLLYA | 4070 count | 1.57% |
| LGYHWIDWEYFVGIED | 25200 count | 9.72% |
| YASSSWALDELLRILY | 2330 count | 0.9% |
| VANILGYHWIDWEYFV | 2030 count | 0.78% |
| WALDELLQILHARELF | 14400 count | 5.55% |
| DWVWEHFFPMEEKDQT | 1540 count | 0.59% |
| GLSWGPYEWWMGLYDA | 1960 count | 0.76% |

Target: human MAL (human) (UniProt P58753)
Assay: P3 phage display panning on plate-immobilised MAL, after round 4, NGS

Sequence of UniProt P58753 (P58753 79-221 limits assumed): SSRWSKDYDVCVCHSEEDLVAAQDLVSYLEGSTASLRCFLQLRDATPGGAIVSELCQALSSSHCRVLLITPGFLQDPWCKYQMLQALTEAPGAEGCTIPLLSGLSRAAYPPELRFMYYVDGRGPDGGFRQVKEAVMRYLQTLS

| Binder | NGS count | Population |
| --- | --- | --- |
| SLRKNLVSNLIEEFKR | 3570 count | 1.34% |
| DHHLDLPRGKAIKPEILG | 2280 count | 0.86% |
| NELVHVWSSKANSLVG | 1840 count | 0.69% |
| YAFTGHLHRYLVQRGV | 43800 count | 16.4% |
| LVAHEISKKMKIFATI | 1670 count | 0.63% |
| RLLKWKEALHQFHSWV | 14900 count | 5.61% |
| EWIREQLRPALKERLP | 2350 count | 0.88% |
| FLNFRGLDVRNYFLGH | 2860 count | 1.07% |
| SSFREGLWRLLELSKK | 30000 count | 11.3% |
| LKVESWRQALEKAGKL | 5180 count | 2.32% |
| DWFLSKLSQHILKREK | 4580 count | 1.72% |
| GFLYQAFAREGFKIFM | 1760 count | 0.66% |
| KMQKWKDALYEAANLS | 4430 count | 1.66% |
| KNLFNELVSKNIRTFM | 3260 count | 1.22% |
| SFFWNKLRYHLPAPQH | 2300 count | 0.86% |
| HHKGSYGEALAEHEKR | 3060 count | 1.15% |
| KWFWDKLIYALSRNPH | 2800 count | 1.05% |
| LQNQWKLALTKVANLV | 2280 count | 0.86% |
